Experimental findings from patent US20190112348A1 are described below.

Experiment [1] concerns the target purified recombinant human insulin receptor (either with or without exon 11) (human) (UniProt P06213). Put plainly: SPA competition vs A14Tyr[125I]-human insulin on recombinant human insulin receptor, relative to human insulin, 0% HSA.
For experiment [2] the target is unchanged. Put plainly: SPA competition vs A14Tyr[125I]-human insulin on recombinant human insulin receptor, relative to human insulin, 4.5% HSA in buffer.

Sequence of purified recombinant human insulin receptor (either with or without exon 11) (human) (P06213 other isoform, or with tags, fused parts or gaps limits assumed, form in doubt): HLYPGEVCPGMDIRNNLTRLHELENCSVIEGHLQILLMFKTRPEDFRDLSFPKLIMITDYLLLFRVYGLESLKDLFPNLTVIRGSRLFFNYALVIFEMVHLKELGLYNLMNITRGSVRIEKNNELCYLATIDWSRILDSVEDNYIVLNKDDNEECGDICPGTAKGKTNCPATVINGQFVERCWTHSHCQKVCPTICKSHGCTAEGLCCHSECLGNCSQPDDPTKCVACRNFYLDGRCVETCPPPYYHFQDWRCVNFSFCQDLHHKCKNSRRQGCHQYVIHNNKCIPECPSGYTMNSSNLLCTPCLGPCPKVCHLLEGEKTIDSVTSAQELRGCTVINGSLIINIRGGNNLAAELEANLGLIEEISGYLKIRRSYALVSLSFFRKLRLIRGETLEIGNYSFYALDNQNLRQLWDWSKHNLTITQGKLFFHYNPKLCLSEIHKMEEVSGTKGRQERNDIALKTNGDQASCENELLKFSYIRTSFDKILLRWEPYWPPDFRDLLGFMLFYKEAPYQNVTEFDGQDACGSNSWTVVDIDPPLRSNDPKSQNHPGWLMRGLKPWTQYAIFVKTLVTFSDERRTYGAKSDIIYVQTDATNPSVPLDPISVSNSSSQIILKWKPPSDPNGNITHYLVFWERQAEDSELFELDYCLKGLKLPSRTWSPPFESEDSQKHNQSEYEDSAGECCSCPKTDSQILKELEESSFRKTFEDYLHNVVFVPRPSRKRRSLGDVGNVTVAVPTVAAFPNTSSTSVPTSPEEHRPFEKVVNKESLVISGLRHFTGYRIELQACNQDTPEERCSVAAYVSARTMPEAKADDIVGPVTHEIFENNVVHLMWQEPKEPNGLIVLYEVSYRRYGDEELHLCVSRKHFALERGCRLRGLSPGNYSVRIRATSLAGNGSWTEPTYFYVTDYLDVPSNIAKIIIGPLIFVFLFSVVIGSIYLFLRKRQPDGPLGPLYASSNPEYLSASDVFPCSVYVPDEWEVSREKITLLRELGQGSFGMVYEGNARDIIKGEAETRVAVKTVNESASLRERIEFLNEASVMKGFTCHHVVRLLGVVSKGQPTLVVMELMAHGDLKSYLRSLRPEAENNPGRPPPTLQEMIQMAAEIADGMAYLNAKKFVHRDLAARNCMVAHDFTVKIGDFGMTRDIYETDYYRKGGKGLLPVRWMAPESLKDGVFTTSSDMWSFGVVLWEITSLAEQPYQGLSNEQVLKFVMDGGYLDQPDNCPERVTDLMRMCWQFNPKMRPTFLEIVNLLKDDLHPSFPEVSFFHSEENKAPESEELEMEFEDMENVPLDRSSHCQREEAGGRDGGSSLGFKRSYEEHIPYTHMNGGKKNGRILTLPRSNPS

Take “A14E, B25H, B27K(N^εOctadecanedioyl-γGlu-OEG-OEG), desB28, desB29, desB30 Human Insulin (from UniProt P01308 90-110; P01308 25-51) (ligand)”: in experiment [1], the Relative IR-A affinity (@ 0% HSA) amounted to 1.9%. Moreover, in experiment [2], the Relative IR-A affinity (@ 4.5% HSA) was found to be 0.08%. Regarding “A14E, B25H, desB27, B29K(N^εOctadecanedioyl-γGlu-OEG-OEG), desB30 Human Insulin (from UniProt P01308 90-110; P01308 25-50; P01308 52-53) (ligand)”, in experiment [1], the Relative IR-A affinity (@ 0% HSA) was 2.5%.
